Assay [1] concerns the target human zB7H6 (full-length, on cells) (human) (UniProt Q68D85). Description: competition flow cytometry, zB7H6-transfected P815 cells, 100-fold mass excess of isotype control antibody (no competition). On the technique in general: A flow cytometer gives signals particle by particle.
Assay [2] has the same target. The experiment in a line: competition flow cytometry, zB7H6-transfected P815 cells, 100-fold mass excess of isotype control antibody against NKp30/mFc2-biotin (no competition).

Sequence of human zB7H6 (full-length, on cells) (human) (Q68D85 25-454): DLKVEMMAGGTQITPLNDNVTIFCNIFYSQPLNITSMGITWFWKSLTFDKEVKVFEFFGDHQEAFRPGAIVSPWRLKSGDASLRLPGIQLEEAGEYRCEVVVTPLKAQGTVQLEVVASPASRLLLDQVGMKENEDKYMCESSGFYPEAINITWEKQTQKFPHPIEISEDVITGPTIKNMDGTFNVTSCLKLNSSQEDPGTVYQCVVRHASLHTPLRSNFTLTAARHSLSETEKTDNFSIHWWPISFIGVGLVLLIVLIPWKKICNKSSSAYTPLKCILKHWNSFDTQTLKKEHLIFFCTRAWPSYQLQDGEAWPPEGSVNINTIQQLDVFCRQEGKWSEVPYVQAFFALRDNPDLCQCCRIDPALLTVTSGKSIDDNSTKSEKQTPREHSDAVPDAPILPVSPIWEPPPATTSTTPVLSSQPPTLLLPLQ

isotype control antibody: in assay [1], the MFI of anti-zB7H6-A647 in the presence of the competitor came to 500. In addition, the MFI of NKp30/mFc2-biotin in the presence of the competitor in assay [2] came out at 775.

Values taken from patent publication US20180258172A1.
